The text below walks through data of patent US20100297136A1 (NOTTINGHAM TRENT UNIVERSITY, published 2010).

The target of assay [1] is T1, HLA-A2.1 MHC class I on the surface of T2 cells.
T1 construct: whole, on cells; MHC class I molecule stabilised on T2 cells by added peptide
Nature of the assay: T2 MHC class I stabilisation, flow cytometry with anti HLA-A2.1 mAb, peptide at 1 ug (printed '1 lg'), n = 3. As to the method:
(§1) 2. CAPABILITY OF T21-DERIVED PEPTIDES TO STABILISE MHC CLASS I ON THE SURFACE OF T2 CELLS. Each of the peptides were then screened in a standard T2 assay to determine their ability to stabilise MHC class I molecules on the surface of T2 cells. In brief, T2 cells were cultured routinely in suspension and when required, resuspended to 4×10⁶ cells/ml. 40 μl of the cell suspension was added to round bottom 96 well plates to give a final cell number of 1.6×10⁵ cells/well. Test peptide was added to the wells in triplicate at concentrations of 100, 10, 1 μg. As a control, T2 cells were also treated with equivalent concentrations of DMSO. Following overnight incubation, cells were harvested into FACS tubes, washed and labelled with anti HLA-A2.1 monoclonal antibody (primary antibody) and FITC conjugated goat IgG F(ab′)₂ anti mouse Ig (secondary antibody). Cells were then analysed using a FACScan spectrofluorometer. (See Table 5 and FIG. 6).
(§2) TABLE 5 Mean T2 binding ratios calculated for the four T21-derived peptides. Mean fluorescence (T2 binding ratio) was calculated by dividing the fluorescence observed for the test peptide by the fluorescence observed for the control (DMSO).
On the technique in general: A flow cytometer gives signals particle by particle.

Assay [2] concerns the target T1, HLA-A2.1 MHC class I on the surface of …. Nature of the assay: T2 MHC class I stabilisation, flow cytometry with anti HLA-A2.1 mAb, peptide at 10 ug (printed '10 lg'), n = 3. The procedure: as §1, §2
Assay [3] has the same target. Nature of the assay: T2 MHC class I stabilisation, flow cytometry with anti HLA-A2.1 mAb, peptide at 100 ug (printed '100 lg'), n = 3. The procedure: as §1, §2

On to LIIPSLERL (Synthetic peptide) [T21:656 peptide], for which the “Mean T2 binding ratio” value is 0.955 ratio to DMSO control in assay [1], 0.928 ratio to DMSO control in assay [2] and 0.921 ratio to DMSO control in assay [3].

For SLERLVNAI (Synthetic peptide) [T21:660 peptide], the “Mean T2 binding ratio” value in assay [1] was 0.918 ratio to DMSO control; in assay [2] it was 0.942 ratio to DMSO control; in assay [3] it was 0.893 ratio to DMSO control.

For YLIHLLQEL (Synthetic peptide) [T21:765 peptide], the “Mean T2 binding ratio” value in assay [1] was 0.955 ratio to DMSO control; in assay [2] it was 1.11 ratio to DMSO control; in assay [3], 2.86 ratio to DMSO control.

For the molecule VIAKFQNKL (Synthetic peptide) [T21:607 peptide], the “Mean T2 binding ratio” value is 0.951 ratio to DMSO control in assay [1], 0.967 ratio to DMSO control in assay [2] and 0.933 ratio to DMSO control in assay [3].
